Data reported in the Human Domainome abundance scans (Beltran et al. 2025).

B1: Homeobox protein cut-like 1, residues 548 to 629; numbered along this chain, P39880 (parent)
chain: GEEMDTAEIARQVKEQLIKHNIGQRIFGHYVLGLSQGSVSEILARPKPWNKLTVRGKEPFHKMKQFLSDEQNILALRSIQGR

Variants of: B1
Assay: abundance fitness (aPCA) (normalised: wild type 0, dead -1); higher = more abundant; growth selection in yeast, the domain comes from the species named
Settings: Homo sapiens

Abundance fitness of substitutions, site by site:
K19: Y -0.242, C -0.363, L -0.201, Q -0.18, G -0.513, D -0.344, H 0.029, A -0.171, E -0.26, W -0.618, I -0.244, R -0.117, P -0.763, M -0.293, F -0.187, N -0.216, V -0.271
I22: S -0.801, G -0.86, M -0.612, L -0.239, D -0.941, P -0.718, Q -0.797, V -0.071, N -0.701, Y -0.916, K -0.931, F -0.49, T -0.687, C -0.491
K14: N -0.058, H 0.1, T -0.396, L -0.401, A -0.324, C -0.263, I -0.24, E -0.282, D -0.343, S 0.565, R -0.111
E8: G -0.233, W -0.231, Q -0.104, H -0.135, I -0.22, A -0.118, L -0.091, K -0.113, M -0.149, S -0.119, D -0.032, T -0.118, V -0.135, R -0.17, C -0.219, P -0.979, N -0.211, F -0.22
M4: Q -0.2, Y -0.203, R -0.517, S -0.355, T -0.204, W -0.23, P -0.318
G23: I -0.309, C -0.054, M -0.12, H -0.009, W -0.268, D 0.114, Y -0.108, F -0.293, V -0.196, L -0.081, S 0.023, R -0.068, P 0.08, N 0.105, A -0.004, K 0.012, T -0.013, Q 0.043
I26: L -0.002, R -0.401, H -0.056, C -0.058, K -0.152, M -0.082, D 0.023, F -0.078, A -0.056, G -0.547, N -0.261, P -0.517
Q24: E 0.053, G -0.386, A -0.129, N -0.069, F -0.094, D -0.091, M -0.032, V 0.043, H 0.021, C -0.108, T -0.069, Y -0.013, W 0.025, P -0.079, S -0.118, I -0.032, R -0.159
T6: K -0.81, M -1.01, A -0.697, F -0.822, P -0.385, W -0.884, D -0.859, I -1.14, C -0.66, G -0.946, E -0.921, L -1.02, R -0.896, V -0.839, Y -0.901, S -0.468
L17: Y -0.842, N -0.696, E -0.613, D -0.774, P -0.538, A -0.724, V -0.665, S -0.635, T -0.518, H -0.939, M -0.405, W -0.808, I -0.358, C -0.493, F -0.808, R -0.609, Q -0.612
V13: W -0.721, A -0.415, S -0.56, Q -0.574, T -0.198, F -0.911, Y -0.812, L -0.423, D -0.486, K -0.548, N -0.511, H -0.574, E -0.608, I -0.102, P -0.564, M -0.263, R -0.586, C -0.238, G -0.53
N21: R -0.115, D -0.03, H 0.009, G 0.025, Q -0.021, S -0.084, T -0.305, V -0.518, P -0.72, E -0.04, F -0.534, A -0.151, C -0.181, W -0.759, I -1.06, Y -0.469, K -0.055, M -0.378
D5: R -0.541, N -0.076, M -0.638, V -0.537, S -0.082, W -0.782, P -0.269, T -0.006, H -0.294, G -0.395, E -0.163, I -0.689, L -0.817, K -0.274, A -0.204, F -0.644, Y -0.561, Q -0.226
Q16: H -0.113
A10: L -0.874, T -0.08, E -0.822, V 0.032, H -1.24, N -0.692, I -0.249, W -0.755, M -0.947, D -0.835, R -0.792, P -0.744, G -0.552, Y -0.863, S -0.151, K -0.746, Q -0.798
I18: N 0.012, M -0.005, W -0.13, Y 0.008, L -0.031, A 0.007, H -0.052, Q 0.084, G -0.105, F 0.085, K 0.075, S 0.014, C 0.014, V 0, E 0.064
H20: E -0.503, T -0.608, V -0.6, C -0.466, I -0.601, W -0.074, A -0.348, S -0.398, N -0.178, P -0.677, G -0.584, K -0.391, F -0.029, R -0.464, L -0.361, D -0.722
E15: A -0.023, R -0.207, C 0.094, T -0.143, Q -0.077, V -0.19, D -0.211, G -0.332, I -0.003, S 0.034, K -0.573, L -0.03, F -0.363, N -0.328, Y -0.091
R25: A 0.102, H 0.059, S 0.078, L -0.192, P -0.068, W -0.072, I -0.122, K 0.022, E 0.158, Q 0.019, N 0.017, M -0.079, G 0.082, V -0.088, F -0.096, T 0.036, Y -0.003, D 0.138
R11: M -0.112, H -0.102, C -0.327, Q -0.24, A -0.157, T -0.131, D -0.274, W -0.506, F -0.243, G -0.18, Y -0.249, P -0.646, N -0.205, K 0.069, V -0.311
A7: M -0.107, K -0.003, Q -0.028, D -0.136, H 0.01, G -0.17, S -0.09, L -0.082, Y -0.093, F -0.053, R -0.093, V -0.121, C -0.081, W -0.143, P -0.532, E -0.029
I9: R -0.69, G -0.623, Y -0.495, H -0.56, L -0.13, E -0.517, W -0.82, P -0.605, C -0.459, N -0.643, S -0.672, D -0.428, F -0.547, T -0.267, K -0.508, M -0.292, Q -0.583, A -0.695, V -0.103
